The text below walks through data of PMC6571972 (Pharmaceutics, 2019).

Series [1] is described as follows: in vivo. Conditions: mouse.
From the text: Dose escalation experiments determined the maximum tolerated dose of the conjugate.
Series [2] can be described thus: cathepsin B degradation. Conditions: acetate buffer/EDTA/L-cysteine without enzyme; acetate buffer pH 5.5/EDTA/L-cysteine, 37 °C, after 6 h; read-out: compound remaining in buffer in the absence of enzyme. It counts as in vitro ADME, bovine. The protocol:
(§1) Cathepsin B degradation: An aqueous solution of L-cysteine (0.28 M) was diluted 1:10 in acetate buffer/EDTA 1 mM pH 5.5, to achieve a working solution of 28 mM of L-cysteine. This solution was used to dilute cathepsin B from bovine spleen (Sigma Aldrich, C6286) to 1.11 U/mL. The cathepsin B solution was pre-incubated at 37 °C for 15 min and then split into 45 µL aliquots in Eppendorf tubes, with two replicates for each incubation time. 5 µL of substrate solution (50 µM in MeOH/H2O (1:1)) were added to each tube for a final concentration of 5 µM. Tubes corresponding to t0 contained 100 µL of 1% HCOOH in MeOH and they were put in an ice bath to inhibit the reaction. All of the other tubes were incubated at 37 °C in an oscillating thermostatic bath and the reaction was stopped at the following incubation times: 0.25, 0.5, 1, 2, 4, and 6 h, as described for the t0 samples. The samples were then centrifuged for 10 min at 14000 rpm at 4 °C and filtered through regenerated cellulose syringe filters prior to injection in the HPLC-ESI-MS system. Control solutions containing 5 µM substrate in acetate buffer pH 5.5/EDTA 1 mM/L-cysteine 28 mM were also prepared and then incubated up to 6 h at 37 °C in the absence of the enzyme to check the substrate stability under incubation conditions. Substrates and their possible cleavage products (Gly-Pro-Cry-55gly, Cry-55gly, and Cry-55) were quantified via calibration curves that were prepared in acetate buffer/EDTA/L-cysteine in the range 25–5000 nM.

Series [3] deals with T1, cathepsin B from bovine spleen (Bos taurus, UniProt P07688).
T1 construct: cathepsin B from bovine spleen (Sigma Aldrich, C6286); purchased Sigma Aldrich C6286; host or cells: bovine spleen (tissue-derived)
Briefly: cathepsin B degradation. It counts as in vitro ADME. Conditions: cathepsin B 1 U/mL. The protocol:
as §1

Series [4] concerns the target T2, human SSTR2 (Homo sapiens, UniProt P30874).
T2 construct: membrane extract (recombinant CHO-K1-SST2 (NP_001041.1), 25 µL, 0.2 µg); expressed in transfected cells; host or cells: CHO-K1
Briefly: radioligand binding competition assay with SSTR2 membrane extract. Conditions: competition with 3-[125I] iodotyrosyl11 Somatostatin 14, CHO-K1-SST2 membranes; read-out: Binding Affinity (IC50 in nM). The protocol: The dilution of test compound (50 µL, maximum final DMSO concentration 3%), radioligand 3-[125I] iodotyrosyl11 Somatostatin 14 (Perkin Elmer, NEX389, 25 µL, 0.4 nM), and membrane extract (recombinant CHO-K1-SST2 (NP_001041.1), 25 µL, 0.2 µg) were successively added to a 96-well plate and then incubated at 25 °C for 60 min. It was filtered over GF/B Unifilter plate (Perkin Elmer, 6005177, pre-soaked in 0.5% PEI for 2 h at room temperature) with a Filtermate Harvester (Perkin Elmer). After rinsing the filters six times with 0.5 mL of ice-cold washing buffer (25 mM HEPES pH 7.4, 5 mM MgCl2, 1 mM CaCl2), 50 µL of Microscint 20 (Packard) was added to the filters and the samples were incubated 15 min on an orbital shaker and then counted with a TopCount™ for 1 min/well. The binding affinity was determined in duplicates by plotting the dose-response data to a nonlinear regression with variable slope.

Series [5] has as its system AtT20 tumors. In words: in vivo antitumor efficacy. Conditions: 5 mg/kg i.v. once weekly for three weeks, AtT20 tumor-bearing mice. More on the design: species or system BALB/c nude mice. The protocol:
Figure S1. Confocal microscopy images from conjugate 10 in SSTR2 positive cell line […]
Animal experiments were approved by the Committee for Animal Experiments of the […]
For in vivo tumor targeting and antitumor efficacy experiments, three million AtT20/D16v-F2 murine pituitary tumor cells in 100 µL PBS/Matrigel (v/v) were xenografted in the right flank of four-weeks-old female BALB/c nude mice (BALB/cAnNRj-Foxn1nu/nu, Janvier Labs). The experiments started around 15 days after implantation, when the animals started to show physical signs of the hormone releasing […]
In vivo antitumor efficacy
Animals bearing AtT20 tumors were randomized in three treatment groups (n=9) and injected intravenously with 5 mg/kg of conjugate 8 in 2% DMSO in water or a mix of […]
Treatment was given once a week for a total of three weeks. Vehicle treatment was used as control. Mice were weighed, and the tumor sizes were monitored with an electronic caliper. Tumor volume was calculated using the ellipsoid formula ν = π/6ꞏxꞏyꞏz.
Figure S2. In vivo antitumor efficacy of conjugate 8 compared to vehicle and unconjugated mix of cryptophycin and octreotide (left), and body weight quantification during treatment (right). […]

Series [6] concerns AtT20/D16v-F2 murine pituitary tumor cells. Briefly: in vitro cytotoxicity, MTT assay. The class given is cell-based. Conditions: 2 h treatment, wash, further 70 h, MTT; read-out: Cytotoxicity in AtT20 (IC50 in nM). The protocol:
In vitro cytotoxicity: To evaluate the cytotoxicity of conjugates and metabolites, AtT20/D16v-F2 murine pituitary tumor cells obtained from American Type Culture Collection (ATCC, Bethesda, MD, USA) were used. Cell viability was determined using the MTT (3-(4,5-dimethyl thiaz ol-2-yl)-2,5-diphenyltetrazolium bromide) assay. Briefly, cells in DMEM supplemented with 10% FBS, 1% L-glutamine, and 1% penicillin/streptomycin were seeded in 96-well culture plates (3000 cells/well) and incubated overnight in a humidified, 37 °C, 5% CO2 atmosphere to allow for adherence. The following day, cells were treated with serial dilutions of each compound starting at 100 nM for free drugs and 1000 nM for each one of the conjugates and incubated as described for 2 h. 0.1% DMSO served as a control. After incubation, the cells were washed once, media replaced, and incubation continued for further 70 h. At the end of treatment, 5 µL of MTT solution (5 mg/mL in deionized H2O, Sigma #M5655) was added to each well and the cells were incubated for another 2 h. Finally, 100 µL of lysis buffer (10% SDS, 10 mM HCl) was added, and the cells were placed in the incubator overnight for the formazan crystal solubilization. Absorbance at 540 nm was measured using a FLUOstar Omega (BMG Labtech) microplate reader and the growth inhibition ratio was calculated. Blank controls detecting cell-free media absorbance were performed in parallel. Three experimental replicates were used. The half-maximal inhibitory concentration values (IC50) were obtained from viability curves while using GraphPad Prism 6. Cell viability was expressed as percentage relative to the respective control conditions.

T2 sequence (P30874 whole entry): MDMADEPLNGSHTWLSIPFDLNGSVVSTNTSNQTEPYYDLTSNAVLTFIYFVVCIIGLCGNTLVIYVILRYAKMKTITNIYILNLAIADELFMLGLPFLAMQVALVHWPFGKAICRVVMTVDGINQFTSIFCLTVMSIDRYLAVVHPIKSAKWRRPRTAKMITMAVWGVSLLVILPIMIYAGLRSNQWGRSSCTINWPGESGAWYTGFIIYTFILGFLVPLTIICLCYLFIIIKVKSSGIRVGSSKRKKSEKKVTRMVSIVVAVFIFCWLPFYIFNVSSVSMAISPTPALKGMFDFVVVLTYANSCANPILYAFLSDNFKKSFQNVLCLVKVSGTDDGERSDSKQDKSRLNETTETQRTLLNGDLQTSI

In the case of `COc1ccc(C[C@H]2NC(=O)/C=C/C[C@@H]([C@H](C)[C@@H](OC(=O)CNC(=O)[C@@H]3CCCN3C(=O)CNC(=O)[C@H](CCCNC(N)=O)NC(=O)[C@@H](NC(=O)CCOCCOCCOCCOCCn3cc(CCC(=O)N[C@H](Cc4ccccc4)C(=O)N[C@H]4CSSC[C@@H](C(=O)N[C@H](CO)[C@@H](C)O)NC(=O)[C@H]([C@@H](C)O)NC(=O)[C@H](CCCCN)NC(=O)[C@@H](Cc5c[nH]c6ccccc56)NC(=O)[C@H](Cc5ccccc5)NC4=O)nn3)C(C)C)[C@@H](Cl)c3ccccc3)OC(=O)[C@H](CC(C)C)OC(=O)C(C)(C)CNC2=O)cc1Cl` [compound 8], in series [1], the MTD was not below 10 mg/kg. Moreover, the share remaining at 6 h, 5 µM in series [2] worked out at 90%. Moreover, the “cleavage by cathepsin B” value in series [3] (5 µM compound, 37 °C) is listed as “readily cleaved”. For the same compound, the “release of cryptophycin-55 glycinate by self-immolation after cleavage” value in series [3] (up to 6 h) is given as “no cryptophycin-55 glycinate (3) was found”. In addition, the concentration for half-maximal inhibition (IC50) in series [4] was determined as 1.3 nM; in series [6], 8.37 nM. The “antitumor efficacy (tumor volume)” value in series [5] is “no therapeutic benefit”.
